Source: publication PMC9748339, “Co-crystalization reveals the interaction between AtYchF1 and ppGpp” (Frontiers in Molecular Biosciences, 2022)

T1: MBP-AtYchF1 (Arabidopsis thaliana, UniProt Q9SA73)
T1 construct: gene YchF1; AtYchF1 cDNA in pMAL-C2, N-terminal MBP tag kept, E. coli BL21 (DE3)
T1 sequence (Q9SA73 1-394): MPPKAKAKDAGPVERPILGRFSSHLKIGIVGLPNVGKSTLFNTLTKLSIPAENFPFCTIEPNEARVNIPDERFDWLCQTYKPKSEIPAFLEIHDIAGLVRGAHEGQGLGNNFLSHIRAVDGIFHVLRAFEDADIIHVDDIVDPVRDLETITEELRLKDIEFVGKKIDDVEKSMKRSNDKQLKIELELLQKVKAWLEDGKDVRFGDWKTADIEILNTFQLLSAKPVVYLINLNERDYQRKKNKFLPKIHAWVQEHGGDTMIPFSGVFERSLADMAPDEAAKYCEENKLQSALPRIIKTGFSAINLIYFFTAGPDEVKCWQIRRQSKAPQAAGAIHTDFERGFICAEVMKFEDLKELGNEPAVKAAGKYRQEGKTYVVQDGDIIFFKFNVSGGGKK

B1: MBP-AtYchF1 (Arabidopsis thaliana) (protein)
chain: MPPKAKAKDAGPVERPILGRFSSHLKIGIVGLPNVGKSTLFNTLTKLSIPAENFPFCTIEPNEARVNIPDERFDWLCQTYKPKSEIPAFLEIHDIAGLVRGAHEGQGLGNNFLSHIRAVDGIFHVLRAFEDADIIHVDDIVDPVRDLETITEELRLKDIEFVGKKIDDVEKSMKRSNDKQLKIELELLQKVKAWLEDGKDVRFGDWKTADIEILNTFQLLSAKPVVYLINLNERDYQRKKNKFLPKIHAWVQEHGGDTMIPFSGVFERSLADMAPDEAAKYCEENKLQSALPRIIKTGFSAINLIYFFTAGPDEVKCWQIRRQSKAPQAAGAIHTDFERGFICAEVMKFEDLKELGNEPAVKAAGKYRQEGKTYVVQDGDIIFFKFNVSGGGKK
notes: AtYchF1 cDNA in pMAL-C2, N-terminal MBP tag kept, E. coli BL21 (DE3)

Assays:
[1] = biological target: T1, MBP-AtYchF1; test: competition with Mant-GTP or Mant-ATP, fluorescence […]-500 nm; format: binding; conditions: 31 μM Mant-GTP or Mant-ATP; about 100 μM MBP-AtYchF1; competitive
[2] = substrate: Nc1nc2c(ncn2[C@@H]2O[C@H](COP(=O)(O)OP(=O)(O)OP(=O)(O)O)[C@@H](O)[C@H]2O)c(=O)[nH]1; test: purified protein; format: biochemical, Arabidopsis thaliana; conditions: 300 μM MBP-AtYchF1; Pi release
[3] = substrate: Nc1nc2c(ncn2[C@@H]2O[C@H](COP(=O)(O)OP(=O)(O)O)[C@@H](OP(=O)(O)OP(=O)(O)O)[C@H]2O)c(=O)[nH]1; test: purified protein; format: biochemical, Arabidopsis thaliana; conditions: 300 μM MBP-AtYchF1; room temperature; PPi release
[4] = substrate: Nc1ncnc2c1ncn2[C@@H]1O[C@H](COP(=O)(O)OP(=O)(O)OP(=O)(O)O)[C@@H](O)[C@H]1O; test: purified protein; format: biochemical, Arabidopsis thaliana; conditions: 300 μM MBP-AtYchF1; Pi release

Row | Molecule | competition with Mant-GTP or Mant-ATP, fluorescence 400-500 nm [1] | Km [2] [µM] | Vmax [2] [µmol/min] | Km [3] [µM] | Vmax [3] [µmol/min] | Km [4] [µM] | Vmax [4] [µmol/min]
1 | Nc1nc2c(ncn2[C@@H]2O[C@H](COP(=O)(O)OP(=O)(O)O)[C@@H](OP(=O)(O)OP(=O)(O)O)[C@H]2O)c(=O)[nH]1 [ppGpp] | ppGpp competed well against Mant-GTP and Mant-ATP for the binding of MBP-AtYchF1 | – | – | – | – | – | –
2 | B1 | – | 1203 ± 125.5 | 0.0924 | 2235 ± 294.3 | 0.0349 | 1278 ± 183.8 | 0.0939
